Here are results for 2 molecules from PMC3765158, “Structure Determination and Biochemical Characterization of a Putative HNH Endonuclease from Geobacter metallireducens GS-15” (PLoS ONE, 2013).

The target of series [1] is non-His-tagged Gme HNHE (Gmet_0936 cleaved off the intein-CBD fusion, with non-native C-terminal residues LEGSS) (Geobacter metallireducens GS-15). Kind of series: SEC; Superdex 200 5/150 GL; 10 µl of 4 or 8 mg/ml protein injected; Kav against the standards ribonuclease A, ovalbumin and conalbumin.
Series [2] deals with the molecule itself. Kind of series: SEC-MALS; analytical gel filtration on Shodex 802.5 at 4°C in 100 mM NaCl, 0.025% NaN3, 100 mM Tris-HCl pH 7.5, static light scattering and refractive index detectors; Debye analysis; data not shown.

As for “non-His-tagged Gme HNHE (Gmet_0936 cleaved off the intein-CBD fusion, with non-native C-terminal residues LEGSS) (enzyme)”, in series [1], the stoichiometry N worked out at 2.

B1: Gmet_0936 protein (putative HNH endonuclease) from Geobacter metallireducens GS-15, with C-terminal LEH6 (enzyme, UniProt Q39X46 1-104, looked up)
chain: MNYFIVEVSEQEVKREKEKARELRRSQWWKNRIARGICHYCGEIFPPEELTMDHLVPVVRGGKSTRGNVVPACKECNNRKKYLLPVEWEEYLDSLESEPSDGEG
modifications: selenomethionine in place of methionine (selenomethionine-labeled)
notes: Gmet_0936, putative HNH endonuclease of Geobacter metallireducens GS-15; full-length gene in a pET21 derivative (pGmR87-21.1); molecular mass with tag 13.3 kDa; The SEC with static light scattering used a thawed aliquot of the crystallization stock (the same protein as in the crystal); also called Gme HNHE (H6); Gmet_0936 (H6); source: E. coli BL21 (DE3) pMGK, selenomethionine-labeled, purified …
Regarding B1, the “stoichiometry N” value in series [2] turned out to be 2.
